Legend:
HEWL-Hel-108 (hen) [1] = target: HEWL-Hel-108 (hen) (UniProt P00698); test: BLI, mAb on AHC biosensor, 100 nM antigen
HEWL-Full2 (hen) [2] = target: HEWL-Full2 (hen) (UniProt P00698); test: BLI, mAb on AHC biosensor, 100 nM antigen, footnote d bounds the value
HEWL-Full4 (hen) [3] = target: HEWL-Full4 (hen) (UniProt P00698); test: as above
HEWL-Full8 (hen) [4] = target: HEWL-Full8 (hen) (UniProt P00698); test: BLI, mAb on AHC biosensor, 100 nM antigen, footnote e bounds the value
HEWL-Full2 (hen) [5] = target: HEWL-Full2 (hen) (UniProt P00698); test: BLI, mAb on AHC biosensor, 100 nM antigen
HEWL-Full2 (hen) [6] = target: HEWL-Full2 (hen) (UniProt P00698); test: BLI, mAb on AHC biosensor, 100 nM antigen, footnote c bounds the value
HEWL-Full4 (hen) [7] = target: HEWL-Full4 (hen) (UniProt P00698); test: as above
HEWL-Full8 (hen) [8] = target: HEWL-Full8 (hen) (UniProt P00698); test: as above
HEWL-Hel-108 (hen) [9] = target: HEWL-Hel-108 (hen) (UniProt P00698); test: as above

| Substance | Kd (HEWL-Hel-108 (hen) [1]) [nM] | Kd (HEWL-Full2 (hen) [2]) [nM] | Kd (HEWL-Full4 (hen) [3]) [nM] | Kd (HEWL-Full8 (hen) [4]) [nM] | Kd (HEWL-Full2 (hen) [5]) [nM] | Kd (HEWL-Full2 (hen) [6]) [nM] | Kd (HEWL-Full4 (hen) [7]) [nM] | Kd (HEWL-Full8 (hen) [8]) [nM] | Kd (HEWL-Hel-108 (hen) [9]) [nM] |
| --- | --- | --- | --- | --- | --- | --- | --- | --- | --- |
| D1.3 (antibody) | 5.7 | 2.9 | 7.9 | 12 |  |  |  |  |  |
| HyHEL-10 (antibody) | 0.092 |  |  |  | 150 |  |  |  |  |
| HyHEL-5 (antibody) |  |  |  |  |  | 0.14 | 0.15 | 0.18 | 0.14 |
